These sequences were tested against Influenza A/H3N2 virus strain Ark1819002 (clade 3C.2a; virus protein quantified as hemagglutinin) (Influenza A virus (H3N2)) (UniProt P03437+P03437) (assay: filter). Conditions: not given.
For “GGGAGAAUUCCGACCAGAAGGAACAUUUGUGGGUGGUGUGGGUGGCUGUUCCUUUCCUCUCUCCUUCCUCUUCU [P30-10-h1-9]”, the binding signal was 832 amol bound.
“GGGAGAAUUCCGACCAGAAGUCCCCUCCCUCGUAUCGUAUGUGCGUUUGCCCUUUCCUCUCUCCUUCCUCUUCU [P30-10-h1-5]” gave a binding signal of 80.3 amol bound.
Work on “GGAGCUCAGCCUUCACUGCCAAAGUGCGAGGCAGUGUGGUGCUGUCCUACGAGUUCUAAAGUUCGUUAGGAAGGCAGCUCAACAUGUUUAACAGGCACCACCGUCGGAUCC [D12]” yielded a binding signal of 0.1 amol bound.
For “GGGAGAAUUCCGACCAGAAGGGUCGGUGUAUAAUUGUAGUUUUGUUGUUGUUGUUGUUGUUGCCUUUCCUCUCUCCUUCCUCUUCU [P30-10-h1-10]”, the binding signal was 60.7 amol bound.
For “GGGAGAAUUCCGACCAGAAGGCGCGAUUGUGGUUGUGGUGGGUGGGCGCGCCUUUCCUCUCUCCUUCCUCUUCU [P30-10-h1-2]”, the binding signal was 166 amol bound.
Work on “GGGAGAAUUCCGACCAGAAGGCGCGAUUGUGUUGUGGUGGGUGGGCGCGCCUUUCCUCUCUCCUUCCUCUUCU [P30-10-h1-8]” yielded a binding signal of 2.87 amol bound.
In the case of “GGGAGAAUUCCGACCAGAAGUAGUAGCCCGGGUGUGGGUUUAUGGUCGUCCCUUUCCUCUCUCCUUCCUCUUCU [P30-10-h1-7]”, the binding signal is reported as 17 amol bound.
In the case of “GGGAGAAUUCCGACCAGAAGUGUCGAUGUGUAUCUUAUUUGUUUGUUUGUUUGUUUGUUUGUCCUUUCCUCUCUCCUUCCUCUUCU [P30-10-h1-3]”, the binding signal is reported as 37.3 amol bound.
Work on “GGGAGAAUUCCGACCAGAAGUAGUAGCCCGGGUGUGGGUUUAUGGCCGCCCCUUUCCUCUCUCCUUCCUCUUCU [P30-10-h1-6]” yielded a binding signal of 34.2 amol bound.
Sequence “GGGAGAAUUCCGACCAGAAGUAGUAGCCCGGGUGUGGGUUUAUGGUCGCCCCUUUCCUCUCUCCUUCCUCUUCU [P30-10-h1-1]” has a binding signal of 47.9 amol bound.
“GGGAGAAUUCCGACCAGAAGGCUAUGGGUUGAGUUCUGUAUGGGUGGGUGCCUUUCCUCUCUCCUUCCUCUUCU [P30-10-h1-4]” gave a binding signal of 232 amol bound.

Same assay, conditions: 2'-F pyrimidines
In the case of “GGAGCUCAGCCUUCACUGCCAAAAAGUUAGGCCAGCAAAUUGCGAGCUGAUCCGGUGACUGGCUACAGGAGGCCUUGUCCACGGCCGUAUUGGCACCACCGUCGGAUCC [D26(2'-F)]”, the binding signal is reported as 32.8 amol bound.

— US20220135977
